Source: patent EP4692114A1, “CALCITONIN ANALOGUE, AND DERIVATIVE THEREOF AND USE THEREOF” (Hangzhou Sciwind Biosciences Co., Ltd., priority 2023, dated 2024)
*1 amine or outer side, *2 acyl side, *3 side chain or, on linkers, in order; H or OH if unused. Primed or numbered codes have the meaning given here. [ ]: non-standard residue; d: D form. The star is where a group is joined. C20 diacid = O=C(O)CCCCCCCCCCCCCCCCCCC(=O)*; C18 diacid = O=C(O)CCCCCCCCCCCCCCCCC(=O)*; γGlu = O=C(O)[C@H](CCC(=O)[*:2])N[*:1]; βAsp = O=C(O)[C@H](CC(=O)[*:2])N[*:1]; Inp′ = not defined here; Trx′ = not defined here; AEEA = NCCOCCOCC(=O)O

T1: human amylin receptor (AMY3) on CHO-K1/Gal5/AMY3 cells (human, UniProt P30988 25-474; O60896 24-148)
T1 sequence (looked up) 1: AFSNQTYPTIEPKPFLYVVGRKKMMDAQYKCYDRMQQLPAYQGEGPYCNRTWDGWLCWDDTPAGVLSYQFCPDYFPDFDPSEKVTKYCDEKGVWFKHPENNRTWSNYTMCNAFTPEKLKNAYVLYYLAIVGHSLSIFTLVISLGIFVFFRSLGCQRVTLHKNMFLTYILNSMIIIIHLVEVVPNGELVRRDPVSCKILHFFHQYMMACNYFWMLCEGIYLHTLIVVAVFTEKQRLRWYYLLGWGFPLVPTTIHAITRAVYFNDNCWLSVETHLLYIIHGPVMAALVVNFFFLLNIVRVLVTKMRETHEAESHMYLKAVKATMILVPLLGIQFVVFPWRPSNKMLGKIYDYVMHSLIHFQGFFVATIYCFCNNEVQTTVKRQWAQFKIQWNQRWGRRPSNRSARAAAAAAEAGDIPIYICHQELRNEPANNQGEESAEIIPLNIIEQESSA
T1 sequence (looked up) 2: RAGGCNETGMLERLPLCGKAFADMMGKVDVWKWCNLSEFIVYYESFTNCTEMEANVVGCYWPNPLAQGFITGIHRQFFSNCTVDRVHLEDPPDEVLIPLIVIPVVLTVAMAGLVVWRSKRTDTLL

B1: calcitonin derivative M60 (peptide)
peptide: {C20 diacid}-D[AEEA][AEEA]ASQLSTAVLGRLSEELHRLQDYPRTDVGSGSP-NH2
SMILES: CC(C)C[C@H](NC(=O)[C@H](CCCNC(=N)N)NC(=O)CNC(=O)[C@H](CC(C)C)NC(=O)[C@@H](NC(=O)[C@H](C)NC(=O)[C@@H](NC(=O)[C@H](CO)NC(=O)[C@H](CC(C)C)NC(=O)[C@H](CCC(N)=O)NC(=O)[C@H](CO)NC(=O)[C@H](C)NC(=O)COCCOCCNC(=O)COCCOCCNC(=O)[C@H](CC(=O)O)NC(=O)CCCCCCCCCCCCCCCCCCC(=O)O)[C@@H](C)O)C(C)C)C(=O)N[C@@H](CO)C(=O)N[C@@H](CCC(=O)O)C(=O)N[C@@H](CCC(=O)O)C(=O)N[C@@H](CC(C)C)C(=O)N[C@@H](Cc1c[nH]cn1)C(=O)N[C@@H](CCCNC(=N)N)C(=O)N[C@@H](CC(C)C)C(=O)N[C@@H](CCC(N)=O)C(=O)N[C@@H](CC(=O)O)C(=O)N[C@@H](Cc1ccc(O)cc1)C(=O)N1CCC[C@H]1C(=O)N[C@@H](CCCNC(=N)N)C(=O)N[C@H](C(=O)N[C@@H](CC(=O)O)C(=O)N[C@H](C(=O)NCC(=O)N[C@@H](CO)C(=O)NCC(=O)N[C@@H](CO)C(=O)N1CCC[C@H]1C(N)=O)C(C)C)[C@@H](C)O
B2: calcitonin derivative M12 (peptide)
peptide: {C20 diacid-γGlu}-ASQLSTAVLGRLSTELHRLQDYPRTDVGSGSP-NH2
SMILES: CC(C)C[C@H](NC(=O)[C@H](CCCNC(=N)N)NC(=O)CNC(=O)[C@H](CC(C)C)NC(=O)[C@@H](NC(=O)[C@H](C)NC(=O)[C@@H](NC(=O)[C@H](CO)NC(=O)[C@H](CC(C)C)NC(=O)[C@H](CCC(N)=O)NC(=O)[C@H](CO)NC(=O)[C@H](C)NC(=O)CC[C@H](NC(=O)CCCCCCCCCCCCCCCCCCC(=O)O)C(=O)O)[C@@H](C)O)C(C)C)C(=O)N[C@@H](CO)C(=O)N[C@H](C(=O)N[C@@H](CCC(=O)O)C(=O)N[C@@H](CC(C)C)C(=O)N[C@@H](Cc1c[nH]cn1)C(=O)N[C@@H](CCCNC(=N)N)C(=O)N[C@@H](CC(C)C)C(=O)N[C@@H](CCC(N)=O)C(=O)N[C@@H](CC(=O)O)C(=O)N[C@@H](Cc1ccc(O)cc1)C(=O)N1CCC[C@H]1C(=O)N[C@@H](CCCNC(=N)N)C(=O)N[C@H](C(=O)N[C@@H](CC(=O)O)C(=O)N[C@H](C(=O)NCC(=O)N[C@@H](CO)C(=O)NCC(=O)N[C@@H](CO)C(=O)N1CCC[C@H]1C(N)=O)C(C)C)[C@@H](C)O)[C@@H](C)O
B3: calcitonin derivative M27 (peptide)
peptide: {C20 diacid-γGlu}-ISQLSTIVLGRLSQELHRLQDYPRTDVGSGSP-NH2
SMILES: CC[C@H](C)[C@H](NC(=O)CC[C@H](NC(=O)CCCCCCCCCCCCCCCCCCC(=O)O)C(=O)O)C(=O)N[C@@H](CO)C(=O)N[C@@H](CCC(N)=O)C(=O)N[C@@H](CC(C)C)C(=O)N[C@@H](CO)C(=O)N[C@H](C(=O)N[C@H](C(=O)N[C@H](C(=O)N[C@@H](CC(C)C)C(=O)NCC(=O)N[C@@H](CCCNC(=N)N)C(=O)N[C@@H](CC(C)C)C(=O)N[C@@H](CO)C(=O)N[C@@H](CCC(N)=O)C(=O)N[C@@H](CCC(=O)O)C(=O)N[C@@H](CC(C)C)C(=O)N[C@@H](Cc1c[nH]cn1)C(=O)N[C@@H](CCCNC(=N)N)C(=O)N[C@@H](CC(C)C)C(=O)N[C@@H](CCC(N)=O)C(=O)N[C@@H](CC(=O)O)C(=O)N[C@@H](Cc1ccc(O)cc1)C(=O)N1CCC[C@H]1C(=O)N[C@@H](CCCNC(=N)N)C(=O)N[C@H](C(=O)N[C@@H](CC(=O)O)C(=O)N[C@H](C(=O)NCC(=O)N[C@@H](CO)C(=O)NCC(=O)N[C@@H](CO)C(=O)N1CCC[C@H]1C(N)=O)C(C)C)[C@@H](C)O)C(C)C)[C@@H](C)CC)[C@@H](C)O
B4: calcitonin derivative M44 (peptide)
peptide: {C18 diacid}-DASQLSTAVLGRLSDELHRLQDYPRTDVGSGSP-NH2
SMILES: CC(C)C[C@H](NC(=O)[C@H](CCCNC(=N)N)NC(=O)CNC(=O)[C@H](CC(C)C)NC(=O)[C@@H](NC(=O)[C@H](C)NC(=O)[C@@H](NC(=O)[C@H](CO)NC(=O)[C@H](CC(C)C)NC(=O)[C@H](CCC(N)=O)NC(=O)[C@H](CO)NC(=O)[C@H](C)NC(=O)[C@H](CC(=O)O)NC(=O)CCCCCCCCCCCCCCCCC(=O)O)[C@@H](C)O)C(C)C)C(=O)N[C@@H](CO)C(=O)N[C@@H](CC(=O)O)C(=O)N[C@@H](CCC(=O)O)C(=O)N[C@@H](CC(C)C)C(=O)N[C@@H](Cc1c[nH]cn1)C(=O)N[C@@H](CCCNC(=N)N)C(=O)N[C@@H](CC(C)C)C(=O)N[C@@H](CCC(N)=O)C(=O)N[C@@H](CC(=O)O)C(=O)N[C@@H](Cc1ccc(O)cc1)C(=O)N1CCC[C@H]1C(=O)N[C@@H](CCCNC(=N)N)C(=O)N[C@H](C(=O)N[C@@H](CC(=O)O)C(=O)N[C@H](C(=O)NCC(=O)N[C@@H](CO)C(=O)NCC(=O)N[C@@H](CO)C(=O)N1CCC[C@H]1C(N)=O)C(C)C)[C@@H](C)O
B5: calcitonin derivative M13 (peptide)
peptide: {C20 diacid-γGlu}-ASQLSTAVLGRLSQELHRLEDYPRTDVGSGSP-NH2
SMILES: CC(C)C[C@H](NC(=O)[C@H](CCCNC(=N)N)NC(=O)CNC(=O)[C@H](CC(C)C)NC(=O)[C@@H](NC(=O)[C@H](C)NC(=O)[C@@H](NC(=O)[C@H](CO)NC(=O)[C@H](CC(C)C)NC(=O)[C@H](CCC(N)=O)NC(=O)[C@H](CO)NC(=O)[C@H](C)NC(=O)CC[C@H](NC(=O)CCCCCCCCCCCCCCCCCCC(=O)O)C(=O)O)[C@@H](C)O)C(C)C)C(=O)N[C@@H](CO)C(=O)N[C@@H](CCC(N)=O)C(=O)N[C@@H](CCC(=O)O)C(=O)N[C@@H](CC(C)C)C(=O)N[C@@H](Cc1c[nH]cn1)C(=O)N[C@@H](CCCNC(=N)N)C(=O)N[C@@H](CC(C)C)C(=O)N[C@@H](CCC(=O)O)C(=O)N[C@@H](CC(=O)O)C(=O)N[C@@H](Cc1ccc(O)cc1)C(=O)N1CCC[C@H]1C(=O)N[C@@H](CCCNC(=N)N)C(=O)N[C@H](C(=O)N[C@@H](CC(=O)O)C(=O)N[C@H](C(=O)NCC(=O)N[C@@H](CO)C(=O)NCC(=O)N[C@@H](CO)C(=O)N1CCC[C@H]1C(N)=O)C(C)C)[C@@H](C)O
B6: calcitonin derivative M28 (peptide)
peptide: {C20 diacid-γGlu}-SSQLSTSVLGRLSQELHRLQDYPRTDVGSGSP-NH2
SMILES: CC(C)C[C@H](NC(=O)[C@H](CCCNC(=N)N)NC(=O)CNC(=O)[C@H](CC(C)C)NC(=O)[C@@H](NC(=O)[C@H](CO)NC(=O)[C@@H](NC(=O)[C@H](CO)NC(=O)[C@H](CC(C)C)NC(=O)[C@H](CCC(N)=O)NC(=O)[C@H](CO)NC(=O)[C@H](CO)NC(=O)CC[C@H](NC(=O)CCCCCCCCCCCCCCCCCCC(=O)O)C(=O)O)[C@@H](C)O)C(C)C)C(=O)N[C@@H](CO)C(=O)N[C@@H](CCC(N)=O)C(=O)N[C@@H](CCC(=O)O)C(=O)N[C@@H](CC(C)C)C(=O)N[C@@H](Cc1c[nH]cn1)C(=O)N[C@@H](CCCNC(=N)N)C(=O)N[C@@H](CC(C)C)C(=O)N[C@@H](CCC(N)=O)C(=O)N[C@@H](CC(=O)O)C(=O)N[C@@H](Cc1ccc(O)cc1)C(=O)N1CCC[C@H]1C(=O)N[C@@H](CCCNC(=N)N)C(=O)N[C@H](C(=O)N[C@@H](CC(=O)O)C(=O)N[C@H](C(=O)NCC(=O)N[C@@H](CO)C(=O)NCC(=O)N[C@@H](CO)C(=O)N1CCC[C@H]1C(N)=O)C(C)C)[C@@H](C)O
B7: calcitonin derivative M53 (peptide)
peptide: {C20 diacid-βAsp}-ASQLSTAVLGRLSEELHRLQDYPRTDVGSGSP-NH2
SMILES: CC(C)C[C@H](NC(=O)[C@H](CCCNC(=N)N)NC(=O)CNC(=O)[C@H](CC(C)C)NC(=O)[C@@H](NC(=O)[C@H](C)NC(=O)[C@@H](NC(=O)[C@H](CO)NC(=O)[C@H](CC(C)C)NC(=O)[C@H](CCC(N)=O)NC(=O)[C@H](CO)NC(=O)[C@H](C)NC(=O)C[C@H](NC(=O)CCCCCCCCCCCCCCCCCCC(=O)O)C(=O)O)[C@@H](C)O)C(C)C)C(=O)N[C@@H](CO)C(=O)N[C@@H](CCC(=O)O)C(=O)N[C@@H](CCC(=O)O)C(=O)N[C@@H](CC(C)C)C(=O)N[C@@H](Cc1c[nH]cn1)C(=O)N[C@@H](CCCNC(=N)N)C(=O)N[C@@H](CC(C)C)C(=O)N[C@@H](CCC(N)=O)C(=O)N[C@@H](CC(=O)O)C(=O)N[C@@H](Cc1ccc(O)cc1)C(=O)N1CCC[C@H]1C(=O)N[C@@H](CCCNC(=N)N)C(=O)N[C@H](C(=O)N[C@@H](CC(=O)O)C(=O)N[C@H](C(=O)NCC(=O)N[C@@H](CO)C(=O)NCC(=O)N[C@@H](CO)C(=O)N1CCC[C@H]1C(N)=O)C(C)C)[C@@H](C)O

target: T1, human amylin receptor (AMY3) on …; assay: cell-based or functional assay

Question: How did the “EC50/nM, CRE-luciferase in amylin receptor/CRE-luc CHO cells” value turn out when B1 was run?
Answer: 0.016 nM

Question: Which “EC50/nM, CRE-luciferase in amylin receptor/CRE-luc CHO cells” value does the source give for B2 here?
Answer: 0.017 nM

Question: With B3 as the binder, how does the “EC50/nM, CRE-luciferase in amylin receptor/CRE-luc CHO cells” value read?
Answer: 0.016 nM

Question: For B4, which “EC50/nM, CRE-luciferase in amylin receptor/CRE-luc CHO cells” value is on record?
Answer: 0.016 nM

Question: {C20 diacid-Trx′-AEEA-AEEA}-ASQLSTAVLGRLSEELHRLQDYPRTDVGSGSP-NH2 (reading uncertain) [calcitonin derivative M61] was tested. Which “EC50/nM, CRE-luciferase in amylin receptor/CRE-luc CHO cells” value did it give?
Answer: 0.015 nM

Question: Which “EC50/nM, CRE-luciferase in amylin receptor/CRE-luc CHO cells” value does the source give for B5 here?
Answer: 0.017 nM

Question: With B6 as the binder, how does the “EC50/nM, CRE-luciferase in amylin receptor/CRE-luc CHO cells” value read?
Answer: 0.017 nM

Question: With {C18 diacid-Trx′}-ASQLSTAVLGRLSDELHRLQDYPRTDVGSGSP-NH2 (reading uncertain) [calcitonin derivative M46] as the binder, how does the “EC50/nM, CRE-luciferase in amylin receptor/CRE-luc CHO cells” value read?
Answer: 0.119 nM

Question: Which “EC50/nM, CRE-luciferase in amylin receptor/CRE-luc CHO cells” value does the source give for B7 here?
Answer: 0.017 nM

Question: Which “EC50/nM, CRE-luciferase in amylin receptor/CRE-luc CHO cells” value does the source give for {C20 diacid-Inp′-AEEA-AEEA}-ASQLSTAVLGRLSEELHRLQDYPRTDVGSGSP-NH2 [calcitonin derivative M62] here?
Answer: 0.016 nM
